Data set [1] deals with conventional CD4+ T cells, CD4+ Tregs, CD8+ T cells, macrophages, dendritic cells in tumors and spleens. Put plainly: Flow cytometry of tumors and spleens of MC38 tumor-bearing mice, Day 10. It is filed as in vivo, mouse. The protocol: On Day 10 spleens and tumors were collected and weighed from all animals in Groups 7 through 12 and weighed prior to processing. Tissues from four animals in each group were processed to single cell suspensions for flow cytometry analysis at CRL-NC (described below). Tissues from the remaining six animals in each group were preserved in RNAlater, stored at −80° C.
Mouse spleen samples were dissociated by gently grinding the tissue across fine mesh with RPMI-1640 media and lysing red blood cells with ACK (ammonium chloride potassium) buffer according to the manufacturer's instructions. Samples were centrifuged and washed twice with PBS.
Mouse tumor samples were dissociated according to the manufacturer's instructions using the gentleMACS™ “Tumor Dissociation Kit” protocol. Tumor samples were filtered through a 70 μm cell strainer and rinsed twice in PBS/2.5% FBS buffer to remove enzymatic buffer. Total tumor sample and plated well volumes were measured and recorded.
Total tissue volumes and Cellometer counts from each sample were recorded. Final single cell suspensions were prepared in PBS pH 7.4 at 2×10^7 cells/mL and held briefly on ice prior to flow cytometry analysis, including conventional CD4^+ T cells, CD4^+ Tregs, CD8^+ T cells, macrophages, and dendritic cells (as % CD45^+ and as cells/mg tissue).
Single cell suspensions were added into 96-well plates and stained for 30 minutes at 4° C. with 100 μL of the reconstituted Live/Dead Aqua (Life Technologies) following manufacturer's instructions. After two washes with 150 μL of Staining Buffer, Fc receptors were blocked using TruStain Fc (Biolegend) in 100 μL volume for five to ten minutes on ice prior to immunostaining. Cells were stained for 30 minutes at 37° C. with antibody panels as described in the protocol. Cells were washed twice with 150 μL of Staining Buffer and resuspended in […] Staining Buffer for analysis. For staining of internal markers such as FoxP3, cells were permeabilized with 200 μL of Transcription Factor Fixation/Permeabilization buffer (eBioscience) for 15 minutes at 4° C. according to manufacturer's instructions. After two washes with 150 μL of Permeabilization Buffer (eBioscience), internal marker staining was carried out using 0.1 μg of each antibody diluted in 100 μL of Permeabilization Buffer for 30 minutes at 4° C. protected from the light. Cells were washed twice with 150 μL of Permeabilization Buffer and resuspended in 100 μL of Staining Buffer. 100 μL of Staining Buffer containing Countbright beads were added to each sample. Isotype-control antibodies were used as negative staining controls when deemed necessary.
All data were collected on a FortessaLSR (BD) and analyzed with FlowJo software (version 10.0.7r2, Tree Star, Inc.). Cell populations were defined as described in the protocol, and the gating strategy was determined by initial gating on singlets (FSC-H vs. FSCA) and then live cells, based on Live/Dead Aqua viability staining.

A short description of data set [2]: Tolerability in vivo in mice relative to rhIL-2. Further details: species or system mouse. The note with it: doses that elicit equivalent or greater expansion of effector cells relative to Tregs.

As to `CNC(=O)c1cccc2cc(Oc3ccnc4cc(OCC5(N)CC5)c(OC)cc34)ccc12` [Lucitanib, 6-(7-((1-Aminocyclopropyl)-methoxy)-6-methoxyquinolin-4-yloxy)-N-methyl-1-naphthamide], the “macrophages in spleens and tumors” value in data set [1] is on record as “decrease”. For the same molecule, the “conventional CD4+ T cells in spleen” value in data set [1] (compared to vehicle) is “increase”.

B1: SEQ ID NO: 2: mouse ortholog construct (murine surrogate) of the circularly permuted IL-2/IL-2Rα fusion protein of SEQ ID NO: 1 (protein)
chain: SKSFQLEDAENFISNIRVTVVKLKGSDNTFECQFDDESATVVDFLRRWIAFCQSIISTSPQGGSSSTQQQQQHLEQLLMDLQELLSRMENYRNLKLPRMLTFKFYLPKQATELKDLQCLEDELGPLRHVLDLTQGSGGGSELCLYDPPEVPNATFKALSYKNGTILNCECKRGFRRLKELVYMRCLGNSWSSNCQCTSNSHDKSRKQVTAQLEHQKEQQTTTDMQKPTQSMHQENLTGHCREPPPWKHEDSKRIYHFVEGQSVHYECIPGYKALQRGPAISICKMKCGKTGWTQPQLTCVDGSHHHHHH
modifications: Mouse cpIL-2IL-2R-alpha
For the molecule B1, the “tolerability relative to recombinant human IL-2 (rhIL-2)” value in data set [2] is “improved tolerability”. Moreover, in data set [1], the “CD4+ Tregs in spleens” value is recorded as “decrease”; the “CD8+ T cells in spleens and tumors” value is listed as “increase”; the “Foxp3+ regulatory T cells (Tregs)” value is listed as “without an increase”; the “dendritic cells in spleens and tumors” value was “increase”. Moreover, the “macrophages in spleens and tumors” value in data set [1] is “decrease”. In data set [1] (compared to vehicle), the “conventional CD4+ T cells in spleen” value was “decreased”, the “numbers of conventional CD4+ T cells in tumors” value is listed as “neither treatment with SEQ ID NO: 2 nor the combination with lucitanib changed the numbers” and the “peripheral CD8+ T cell expansion” value was “significant peripheral CD8^+ T cell expansion”.

These data come from patent US20210338656A1, “IMMUNOSTIMULATORY AGENTS IN COMBINATION WITH ANGIOGENESIS INHIBITORS” (Alkermes Pharma Ireland Limited, priority 2020, published 2021).
